Data on four molecules can be found in paper PMC8121366, “Crystal and solution structures reveal oligomerization of individual capsid homology domains of Drosophila Arc” (PLoS ONE, 2021).

One data set addresses T1, Drosophila Arc1 N-lobe (Drosophila).
T1 chain: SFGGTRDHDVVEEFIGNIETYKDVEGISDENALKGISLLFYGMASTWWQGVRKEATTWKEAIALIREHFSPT
The data set can be described thus: SEC-MALS + other: SAXS; SEC-MALS on Superdex S200 Increase 10/300 in TBS (20 mM Tris-HCl pH 7.4, 150 mM NaCl); SEC-SAXS on Superdex S200 Increase 3.2 in TBS, injected at 5 mg/ml, +10°C. The note with it: both partners purified. In general terms: In gel filtration, larger molecules generally elute earlier.

Data set [1] concerns the molecule itself. Described as above.

B1: Drosophila Arc1 N-lobe (domain or fragment)
chain: SFGGTRDHDVVEEFIGNIETYKDVEGISDENALKGISLLFYGMASTWWQGVRKEATTWKEAIALIREHFSPT
modifications: limits inferred from the homologous dArc2-NL construct (6SIB, 37-109), the 8.2 kDa monomer mass and the dArc1-CL start at 123 (6SID); start uncertain by about 1 residue; dimer in solution / limits …
Broadly, the stoichiometry N is the number of molecules, sites or subunits per partner or assembly. For B1, the “stoichiometry N” value with Drosophila Arc1 N-lobe worked out at 2.

B2: Drosophila Arc2 C-lobe (domain or fragment)
chain: KPSYQIYMEIFETKQSYDEVIDSFICKQRALLAKLPEGRHDEETELDFIYGLMQPKYRESIPRHEVKTFRELLDRGRTVERTRH
notes: Arc2 (dArc2) of Drosophila, isolated C-lobe; monomeric mass 10 kDa; Dimer in the crystal and in solution; also called dArc2-CL; source: E. coli BL21(DE3), purified (Ni-NTA, TEV cleavage, second Ni-NTA, amylose resin, Superdex S200); not shown: His tag, N-terminal, cleaved; MBP, N-terminal, cleaved
In the case of B2, in data set [1], the “stoichiometry N” value worked out at 2.

B3: Drosophila Arc1 C-lobe (domain or fragment)
chain: KPAYQIYMEFFQNKQDDHDPIDTFVIQKRALLAQLPSGRHDEETELDLLFGLLNIKYRKHISRHSVHTFKDLLEQGRIIEHNNQED
notes: Arc1 (dArc1) of Drosophila, isolated C-lobe; monomeric mass 11 kDa; Dimer in the crystal and in solution; also called dArc1-CL; source: E. coli BL21(DE3), purified (Ni-NTA, TEV cleavage, second Ni-NTA, amylose resin, Superdex S200); not shown: His tag, N-terminal, cleaved; MBP, N-terminal, cleaved
Take B3: the “stoichiometry N” value in data set [1] came to 2.

B4: Drosophila Arc2 N-lobe (domain or fragment)
chain: RFSGQRDHDAVDEFINAVETYKEVEGISDKDALKGLPLLFKSIAVVWWKGVRRDAKTWSDALQLLRDHFSPT
notes: monomeric mass 8.4 kDa; Tetramer in solution (SEC-MALS, SAXS); domain-swapped dimer in the crystal; also called dArc2-NL; source: E. coli BL21(DE3), purified (Ni-NTA, TEV cleavage, second Ni-NTA, Superdex S200); not shown: His tag, N-terminal, cleaved; MBP, N-terminal, cleaved
B4: the “stoichiometry N” value in data set [1] amounted to 4.
